The sequences below were run on Escherichia coli TOP10 (assay: shrunken log2 fold change of peptide-encoding DNA abundance (4.5 h post-induction vs induction); higher = less antimicrobial activity (less host growth inhibition)). Settings: time post-induction: 4.5 h; library: site-saturation at positions 5, 18, 19, 20.
For RRIRSRPPRLPRPRPRPKEAPRP, the “shrunken log2 fold change” value was -0.144. RRIRIRPPRLPRPRPRPKVWPRP was tested, and the “shrunken log2 fold change” value was -0.0123. For RRIRKRPPRLPRPRPRPSRHPRP, the “shrunken log2 fold change” value was 0.0967. For RRIRSRPPRLPRPRPRPRAEPRP, the “shrunken log2 fold change” value was 0.492. In the case of RRIRYRPPRLPRPRPRPNLWPRP, the “shrunken log2 fold change” value is reported as 0.00221. RRIRERPPRLPRPRPRPGKLPRP was tested, and the “shrunken log2 fold change” value was 0.162. In the case of RRIRGRPPRLPRPRPRPLIHPRP, the “shrunken log2 fold change” value is reported as 0.324. With RRIRERPPRLPRPRPRPLIEPRP the “shrunken log2 fold change” value was -0.287. For RRIRRRPPRLPRPRPRPNINPRP, the “shrunken log2 fold change” value was -0.156. In the case of RRIRERPPRLPRPRPRPEGSPRP, the “shrunken log2 fold change” value is reported as 0.0172. In the case of RRIRCRPPRLPRPRPRPVYIPRP, the “shrunken log2 fold change” value is reported as -0.756. RRIRNRPPRLPRPRPRPITLPRP was tested, and the “shrunken log2 fold change” value was -0.229. In the case of RRIRWRPPRLPRPRPRPRHTPRP, the “shrunken log2 fold change” value is reported as -0.0876. In the case of RRIRKRPPRLPRPRPRPMTWPRP, the “shrunken log2 fold change” value is reported as -0.00388. For RRIRFRPPRLPRPRPRPMFLPRP, the “shrunken log2 fold change” value was -0.712. For RRIRLRPPRLPRPRPRPFRIPRP, the “shrunken log2 fold change” value was 0.0742. RRIRGRPPRLPRPRPRPHMDPRP was tested, and the “shrunken log2 fold change” value was 0.0325. In the case of RRIRARPPRLPRPRPRPKSLPRP, the “shrunken log2 fold change” value is reported as -0.109. For RRIRTRPPRLPRPRPRPAWLPRP, the “shrunken log2 fold change” value was -0.0636. For RRIRPRPPRLPRPRPRPCFFPRP, the “shrunken log2 fold change” value was -0.0762. For RRIRPRPPRLPRPRPRPIDCPRP, the “shrunken log2 fold change” value was -0.0101. For RRIRARPPRLPRPRPRPGKYPRP, the “shrunken log2 fold change” value was -0.152. In the case of RRIRARPPRLPRPRPRPWYDPRP, the “shrunken log2 fold change” value is reported as -0.32. With RRIRRRPPRLPRPRPRPYDYPRP the “shrunken log2 fold change” value was 0.00863. RRIRPRPPRLPRPRPRPYAVPRP was tested, and the “shrunken log2 fold change” value was -0.712. For RRIRKRPPRLPRPRPRPIWFPRP, the “shrunken log2 fold change” value was -0.0276. With RRIRSRPPRLPRPRPRPTNWPRP the “shrunken log2 fold change” value was 0.0446. RRIRCRPPRLPRPRPRPQFEPRP was tested, and the “shrunken log2 fold change” value was 0.000801. RRIRVRPPRLPRPRPRPYHTPRP was tested, and the “shrunken log2 fold change” value was -0.15. RRIRYRPPRLPRPRPRPSMCPRP was tested, and the “shrunken log2 fold change” value was -0.24. For RRIRRRPPRLPRPRPRPFSTPRP, the “shrunken log2 fold change” value was -0.0277. For RRIRHRPPRLPRPRPRPDYYPRP, the “shrunken log2 fold change” value was -0.622. RRIRTRPPRLPRPRPRPHCWPRP was tested, and the “shrunken log2 fold change” value was -0.0903. In the case of RRIRIRPPRLPRPRPRPYPQPRP, the “shrunken log2 fold change” value is reported as -0.974. With RRIRTRPPRLPRPRPRPEMPPRP the “shrunken log2 fold change” value was -0.0682. RRIRTRPPRLPRPRPRPRLVPRP was tested, and the “shrunken log2 fold change” value was 0.0412. RRIRRRPPRLPRPRPRPPRNPRP was tested, and the “shrunken log2 fold change” value was 1.28. RRIRFRPPRLPRPRPRPMPFPRP was tested, and the “shrunken log2 fold change” value was -0.0201. In the case of RRIRERPPRLPRPRPRPPSWPRP, the “shrunken log2 fold change” value is reported as -0.2. For RRIRRRPPRLPRPRPRPFPIPRP, the “shrunken log2 fold change” value was 0.199. For RRIRHRPPRLPRPRPRPNVDPRP, the “shrunken log2 fold change” value was 0.187. With RRIRIRPPRLPRPRPRPSLGPRP the “shrunken log2 fold change” value was -0.245. With RRIRQRPPRLPRPRPRPRCFPRP the “shrunken log2 fold change” value was -0.0694. In the case of RRIRMRPPRLPRPRPRPQHWPRP, the “shrunken log2 fold change” value is reported as 0.155. With RRIRMRPPRLPRPRPRPKQRPRP the “shrunken log2 fold change” value was 1.1. With RRIRIRPPRLPRPRPRPFQGPRP the “shrunken log2 fold change” value was 0.0801. With RRIRFRPPRLPRPRPRPANNPRP the “shrunken log2 fold change” value was -0.917. RRIRSRPPRLPRPRPRPGNKPRP was tested, and the “shrunken log2 fold change” value was -0.194. For RRIRLRPPRLPRPRPRPWYFPRP, the “shrunken log2 fold change” value was -0.231. RRIRFRPPRLPRPRPRPMAFPRP was tested, and the “shrunken log2 fold change” value was -0.126. RRIRFRPPRLPRPRPRPYHAPRP was tested, and the “shrunken log2 fold change” value was -0.0961. In the case of RRIRDRPPRLPRPRPRPIFNPRP, the “shrunken log2 fold change” value is reported as -0.239. RRIRRRPPRLPRPRPRPLVLPRP was tested, and the “shrunken log2 fold change” value was 0.0551. In the case of RRIRIRPPRLPRPRPRPRHVPRP, the “shrunken log2 fold change” value is reported as -0.163. For RRIRHRPPRLPRPRPRPRNVPRP, the “shrunken log2 fold change” value was -0.00885. In the case of RRIRDRPPRLPRPRPRPETLPRP, the “shrunken log2 fold change” value is reported as 0.452. In the case of RRIRTRPPRLPRPRPRPYPNPRP, the “shrunken log2 fold change” value is reported as -0.414. In the case of RRIRARPPRLPRPRPRPPNDPRP, the “shrunken log2 fold change” value is reported as 0.459. RRIRRRPPRLPRPRPRPMALPRP was tested, and the “shrunken log2 fold change” value was 5.63e-05. In the case of RRIRKRPPRLPRPRPRPQFMPRP, the “shrunken log2 fold change” value is reported as -0.54. In the case of RRIRFRPPRLPRPRPRPDAHPRP, the “shrunken log2 fold change” value is reported as -0.0702. With RRIRTRPPRLPRPRPRPAKFPRP the “shrunken log2 fold change” value was -0.00176. RRIRQRPPRLPRPRPRPGWHPRP was tested, and the “shrunken log2 fold change” value was 0.0202. For RRIRARPPRLPRPRPRPGTQPRP, the “shrunken log2 fold change” value was 0.316. For RRIRKRPPRLPRPRPRPYSEPRP, the “shrunken log2 fold change” value was -0.269. In the case of RRIRMRPPRLPRPRPRPEKTPRP, the “shrunken log2 fold change” value is reported as -0.0246. With RRIRGRPPRLPRPRPRPECNPRP the “shrunken log2 fold change” value was 1.95. RRIRQRPPRLPRPRPRPTGKPRP was tested, and the “shrunken log2 fold change” value was -0.00964. RRIRFRPPRLPRPRPRPDRWPRP was tested, and the “shrunken log2 fold change” value was 0.0556. With RRIRSRPPRLPRPRPRPFLEPRP the “shrunken log2 fold change” value was -0.248. RRIRTRPPRLPRPRPRPPIRPRP was tested, and the “shrunken log2 fold change” value was -0.1. For RRIRDRPPRLPRPRPRPCNTPRP, the “shrunken log2 fold change” value was -0.224. RRIRKRPPRLPRPRPRPKCVPRP was tested, and the “shrunken log2 fold change” value was 0.52. With RRIRHRPPRLPRPRPRPPMIPRP the “shrunken log2 fold change” value was -0.105. With RRIRQRPPRLPRPRPRPRWQPRP the “shrunken log2 fold change” value was 0.0759.
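Further: peptides expressed intracellularly from a pBAD plasmid library in pooled LB shake-flask culture, induced with 0.3% L-arabinose, DNA abundance read by NGS, three biological replicates, DESeq2 with apeglm shrinkage.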
